Drawing on PMC8084935, this text covers Kd for 1 substance.

As a reminder, the Kd is the constant that tells how readily two partners part at equilibrium. A lower Kd goes with a tighter complex.

The test addresses FITC-labeled McrA peptide (GG-…) (Methanothermobacter sp. CaT2). The test is described as follows: fluorescence polarisation. For orientation: Fluorescence polarisation rises when a labelled molecule tumbles more slowly, as on binding a larger partner.

In turn, “MtYcaO (YcaO from Methanothermobacter sp. CaT2), MBP-His tag cut in the assay mixture (enzyme)” came in with an equilibrium dissociation constant (Kd) of 7 µM.
